Measurements reported in patent publication US20170240883A1, “CYCLIC PEPTIDES EXPRESSED BY A GENETIC PACKAGE” (Miti Biosystems GmbH, priority 2014, published 2017).

T1: substrate peptide NH2-KPTTVKPPSDFEEWTINVC-COOH
T1 chain: KPTTVKPPSDFEEWTINVC

B1: Celf5ProcM (ProcM - 5-residue linker - C-terminal ProcA4.3 leader enzyme-leader fusion) (protein)
chain: MSEEQLKAFIAKVQADTSLQEQLKAEGADVVAIAKAAGFTITTEDLNSHRQNLTDDELEGVAGGSASGSGSGSAMESPSSWKTSWLAAIAPDEPHKFDRRLEWDELSEENFFAALNSEPASLEEDDPCFEEALQDALEALKAAWDLPLLPVDNNLNRPFVDVWWPIRCHSAESLRQSFVSDSAGLADEIFDQLADSLLDRLCALGDQVLWEAFNKERTPGTMLLAHLGAAGDGSGPPVREHYERFIQSHRRNGLAPLLKEFPVLGRLIGTVLSLWFQGSVEMLQRICADRTVLQQCFAIPCGHHLKTVKQGLSDPHRGGRAVAVLEFADPNSTANSSMHVVYKPKDMAVDAAYQATLADLNTHSDLSPLRTLAIHNGNGYGYMEHVVHHLCANDKELTNFYFNAGRLTALLHLLGCTDCHHENLIACGDQLLLIDTETLLEADLPDHISDASSTTAQPKPSSLQKQFQRSVLRSGLLPQWMFLGESKLAIDISALGMSPPNKPERIALGWLGFNSDGMMPGRVSQPVEIPTSLPVGIGEVNPFDRFLEDFCDGFSMQSEALIKLRNRWLDVNGVLAHFAGLPRRIVLRATRVYFTIQRQQLEPTALRSPLAQALKLEQLTRSFLLAESKPLHWPIFAAEVKQMQHLDIPFFTHLIDADALQLGGLEQELPGFIQTSGLAAAYERLRNLDTDEIAFQLRLIRGAVEARELHTTPESSPTLPPPATPEALMSSSAETSLEAAKRIAHRLLELAIRDSQGQVEWLGMDLGADGESFSFGPVGLSLYGGSIGIAHLLQRLQAQQVSLMDADAIQTAILQPLVGLVDQPSDDGRRRWWRDQPLGLSGCGGTLLALTLQGEQAMANSLLAAALPRFIEADQQLDLIGGCAGLIGSLVQLGTESALQLALRAGDHLIAQQNEEGAWSSSSSQPGLLGFSHGTAGYAAALAHLHAFSADERYRTAAAAALAYERARFNKDAGNWPDYRSIGRDSDSDEPSFMASWCHGAPGIALGRACLWGTALWDEECTKEIGIGLQTTAAVSSVSTDHLCCGSLGLMVLLEMLSAGPWPIDNQLRSHCQDVAFQYRLQALQRCSAEPIKLRCFGTKEGLLVLPGFFTGLSGMGLALLEDDPSRAVVSQLISAGLWPTESASGSGSGSAMSEEQLKAFIAKVQADTSLQEQLKAEGADVVAIAKAAGFTITTEDLNSHRQNLTDDELEGVAGG
B2: NelfMvdDGS10 (N-terminal MvdE leader - 10-residue linker - MvdD enzyme-leader fusion) (protein)
chain: MSKNVKVSAPKAVPFFARFLAEQAVEANNSNSAPSASGSGSGSGSTSGSGSGSAMTVLIFTFSNDNESIPLVVKAIEAKGEKAFRFDTDRFPTEVKLDIYSGDFEGGIVTDGEHKLDLSEVSSVWYRRMRYGAKLPDSMDQQFREASLKECRLTVRGLIASLPGFHFDPMINVDRANNKQLQLQIARQLGLLTPRTLTSNNPEAVKQFAQDCKEQGIVTKMLSQFAIYGENKEENVVFTSPVTDDDLDNLEGLSFCPMTFQENVPKALELRTIIVGKQVFTAAINSQQLDGATYDWRKEGRALHEKWQAYNLPEDIEKKLLQLTAYFGLNYGAIDIIVTPDGRHVFLEINPVGEFFWLELFAPYFPISQAIAEILLTPTNQKPF

Legend:
Human Plasma Kallikrein = biological target: T2, Human Plasma Kallikrein (Homo sapiens, UniProt P03952); experiment: Phage selection of ProcM-modified SynLib1 library on biotinylated kallikrein (output titre); assay type: binding; conditions: 24 clones from R3 6.25 nM kallikrein output
T2 construct: purchased Molecular Innovations, Inc, USA
Method: Human Plasma Kallikrein (Molecular Innovations, Inc, USA) at 1.15 mg/ml (13 μM) solution in 4 mM acetate, 150 mM NaCl, pH 5.3 was biotinylated using NHS-PEG4-Biotin from the EZ-link micro-PEO4-biotinylation kit (Pierce Biotechnology, USA). 680 μl of water was added to the contents of the pre-weighed vial of biotinylation reagent to make a 5 mM solution. 1 μl of this solution was added to 100 μl of the kallikrein solution. This was incubated at RT for 1 hour prior to the separation of the biotinylated protein from the unreacted biotin, using a 2 ml Spin Desalting column (Pierce Biotechnology, USA). The volume of the kallikrein was made up to 350 μl with PBS (Formedium Ltd, UK) and was loaded onto the spin column which had been equilibrated with PBS (as per the manufacturer's instructions). When this solution had been absorbed into the column matrix, a further 50 μl of PBS was added on top and the column was spun in a centrifuge at 1000 g for 2 min. 395 μl of solution was collected, making the concentration of the biotinylated kallikrein about 3.25 μM.
150 μl of stock SynLib1 library (2.5e11 phage per μl) was added to 1850 μl of TE buffer, 2 μl 1 M TCEP (Melford Biolaboratories Ltd, UK) and incubated at RT for 20 minutes to reduce the peptides on the phage. […]

[1] = biological target: T1, substrate peptide …

T2 sequence (P03952 20-638): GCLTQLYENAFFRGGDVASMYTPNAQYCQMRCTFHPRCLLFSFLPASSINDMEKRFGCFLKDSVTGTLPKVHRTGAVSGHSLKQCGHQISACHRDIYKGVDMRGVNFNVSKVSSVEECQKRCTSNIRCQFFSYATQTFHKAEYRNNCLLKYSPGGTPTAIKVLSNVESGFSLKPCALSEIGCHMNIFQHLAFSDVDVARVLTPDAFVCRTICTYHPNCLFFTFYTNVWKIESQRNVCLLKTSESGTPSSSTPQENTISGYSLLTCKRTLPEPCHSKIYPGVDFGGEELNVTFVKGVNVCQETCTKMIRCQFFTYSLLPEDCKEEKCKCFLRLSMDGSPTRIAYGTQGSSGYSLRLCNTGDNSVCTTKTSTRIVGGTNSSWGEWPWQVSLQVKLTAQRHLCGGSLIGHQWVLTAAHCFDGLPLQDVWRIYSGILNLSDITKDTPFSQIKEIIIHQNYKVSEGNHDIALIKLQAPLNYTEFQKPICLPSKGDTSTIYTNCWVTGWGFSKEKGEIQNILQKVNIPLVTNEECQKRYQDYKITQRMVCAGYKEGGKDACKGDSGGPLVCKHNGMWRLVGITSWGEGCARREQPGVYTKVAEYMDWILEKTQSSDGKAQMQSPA

Row | Molecule | share of the clones that were sequenced (Human Plasma Kallikrein) [%] | dehydration of the peptide, LC-ESI mass spectrometry [1]
1 | AACKGPSPTPNNC [clone 24] | 12.5 | –
2 | B1 | – | one portion of the used peptide P2 was found showing triple dehydration with a m/z value of 1069.022
3 | B2 | – | one portion of the used peptide P2 was found showing triple dehydration with a m/z value of 1069.022
